Assay results reported in US12723105.

Columns and labels:
CD47 [1] = target: CD47 (UniProt Q08722); assay: competitive ELISA vs SIRPα
CD47 [2] = target: CD47 (UniProt Q08722); assay: flow cytometry, CD47-overexpressing cells

- IC50 (CD47 [1]): 0.499 nM
- EC50 (CD47 [2]): 5.59 nM
Substance: B6H12
